From the nanobody polyreactivity screen of Harvey et al. (2022)

Test: yeast display, Sf9 membrane polyspecificity reagent, FACS + sequencing; frameworks hold sequencing errors
Procedure, shortened: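 Galactose-induced (36–48 hours) yeast carrying a synthetic nanobody display library were exposed to 10% biotinylated, detergent-solubilized Sf9 membrane reagent at 4 °C for 1 hour. FACS followed streptavidin microbead enrichment, using low and high (top ~1%) gates for expression (anti-HA) and reagent binding (streptavidin). Colony PCR, MiSeq 2 × 250 sequencing and CDR-length filtering followed. Labels for polyreactivity reflect the gate of origin.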

QVQLVESGGGLVQAGGSLRLSCAASGIIFYKFAMGWYRQAPGKERELVASISRRGGNTYYADSVKGRCTISRDNAKNTVYLQMNSLKPEDTAVYDSAAPKRSNEPYDYWGQGTQVTVSS
polyreactivity (PSR sort gate): high polyreactivity

QVQLVESGGGLVQAGGSLRLSCAASGIIFYKNDMGWYRQAPGKERELVAAINRSGGRTYYADSVKGRFTISRDNAKNTVYLQMNSLKPEDTAVYYCATDKVSHRRYDYWGQGTLVTVSS
polyreactivity (PSR sort gate): high polyreactivity

QVQLVESGGGLVQAGGSLRLSCAASGIIFYKYAMGWYRQAPGKERELVAAITSGGGRTYYADSVKGRFTISRDNAKNTVYLQMNSLKPEDTAVYYCNADTYSAGDYWGQGTQVTVSS
polyreactivity (PSR sort gate): high polyreactivity

QVQLVESGGGLVQAGGSLRLSCAASGIIFYPYAMGWYIQAPGKERELVAGISSSGGSTYYADSVKGRFTISRDNAKNTVYLQMNSLKPEDTAVYYCAVGGERGARIGSNHRGSRYDYWGQGTQVTVSS
polyreactivity (PSR sort gate): high polyreactivity

QVQLVESGGGLVQAGGSLRLSCAASGIIFYPYAMGWYRQAPGKERELVAAISIGGGSTYYADSVKGRFTISRDYAKNTVYLQMNSLKPEDTAVYYFAAGTPYGILGFYYWGQGTQVTVSS
polyreactivity (PSR sort gate): low polyreactivity

QVQLVESGGGLVQAGGSLRLSCAASGIIFYPYAMGWYRQAPGKERELVADITSGGGTNYADSVKGRFTISRDNAKNTVYLHMNSLKREDTAVYYWAAEVRGYHWGTYYEFYYWGQGTQVTVSS
polyreactivity (PSR sort gate): low polyreactivity

QVQLVESGGGLVQAGGSLRLSCAASGIIFYRNTMGWYRQAPGKERELVAAIRRGGNTYYADSVKGRFTISRDNAKNTVYLQMNSLKPEDTAVYYCAAEDYNGRQYYHKMDYWGQGTQVTVSS
polyreactivity (PSR sort gate): high polyreactivity

QVQLVESGGGLVQAGGSLRLSCAASGIIFYRYAMGWYRQAPAKERELVAAISRSGGSTYYADSVKGRFTISRDNAKNTVYLQMNSLKPEDTAVYYCAARVRTNYYGSYYYWGQGTQVTVSS
polyreactivity (PSR sort gate): high polyreactivity

QVQLVESGGGLVQAGGSLRLSCAASGIIFYRYAMGWYRQAPGKERELVAVISRSGCSTYYADSVKGRFTISRDNAKNTVYLQMNSLKPEDTAVYYSAAGRRYDGTRHDYWGQGTQVTVSS
polyreactivity (PSR sort gate): high polyreactivity

QVQLVESGGGLVQAGGSLRLSCAASGIIFYSYAMGWYRQAPGKERELVAAISNNGGSTYADSVKGRFTISRDNAKNTVYLQMNSLKPEDTAVYYCAADPTGGVGFDGYYWGQGTQVTVSS
polyreactivity (PSR sort gate): low polyreactivity

QVQLVESGGGLVQAGGSLRLSCAASGIIFYWNAMGWYRHAPGKERELVAGITRGGSTYYADSVKGRFTISRDNAKNTVYLQMNSLKPEDTAVYYCAKRHASRRVSYSRYDYWGQGTQVTVSS
polyreactivity (PSR sort gate): high polyreactivity

QVQLVESGGGLVQAGGSLRLSCAASGIIFYWYAMGRYRQAPGKERELVATINSTGGSTNYADSVKVRFTISRDNAKNTVYLQMNSLKPEDTAVYYCAKDWNDDQHSWDTPFDYWGQGTQVTVSS
polyreactivity (PSR sort gate): low polyreactivity

QVQLVESGGGLVQAGGSLRLSCAASGIIFYYYAMGWYRHAPGKERELVAAISTSGTRTFYADSVKGRFTISRDNAKNTVYLQMNCLKPEDTAVYYCAARIYKPQRSSSLYRTSGYWGQGTQVTVSS
polyreactivity (PSR sort gate): high polyreactivity

QVQLVESGGGLVQAGGSLRLSCAASGIIFYYYAMGWYRQAPGKERELVAAISWSGGSTYYADSVKGRFTISRDNAKNTVYLQMNSLKPDDTAVYYCAAAFSPGWWSRHTYDYDYWGQGTQVTVSS
polyreactivity (PSR sort gate): high polyreactivity

QVQLVESGGGLVQAGGSLRLSCAASGIIFYYYAMGWYRQAPGKERELVAAISWSGGSTYYADSVKGRFTISRDNAKNTVYLQMNSLKPEDTAVYYCAAAFSPGWWSRHTYDYDYWGQGTQVTVSS
polyreactivity (PSR sort gate): high polyreactivity

QVQLVESGGGLVQAGGSLRLSCAASGIIFYYYVMGCYRQAPGKERELVAAISRSGGRTRYADSVKGRFTISRDNAKNTVYLQMNSLKPEDTAVYYCAAVGSVNYDADFDYWGQGTQVTVSS
polyreactivity (PSR sort gate): high polyreactivity

QVQLVESGGGLVQAGGSLRLSCAASGIIFYYYVMGWDRQAPGKERELVAAISDSGDNTYYADSVKGRFTISRDNAKKTVYLQMNSVKPEDTAVYYCNSQVDYWSNPWIYRKYDYWGQGTQVTVSS
polyreactivity (PSR sort gate): high polyreactivity

QVQLVESGGGLVQAGGSLRLSCAASGIIIITYAMGWYRQAPGKERELVAVISFSGGGTYADSVKGRFTISRDNAKNTVYLQMNSLKPEVTAVYYCAKYWLSALTLEDDYCGQGTQVTVSS
polyreactivity (PSR sort gate): low polyreactivity

QVQLVESGGGLVQAGGSLRLSCAASGIIIQRNAMGWYRQAPGKERELVAAISIGGGSTYADSVKGRFTISRDNAMNTVYLQMNSLKPEDTAVYYCAADYSGASVLMDYWGQGTQVTVSS
polyreactivity (PSR sort gate): low polyreactivity

QVQLVESGGGLVQAGGSLRLSCAASGIIIRYYAMGWYRQAPGKERELVAAISTSGGRTYYADSVKGRFTISRDNAKNPVYLQMNSLKPEDTAVYYCAARPGSWYPSVPSYNYWGQGTQVTVSW
polyreactivity (PSR sort gate): low polyreactivity

QVQLVESGGGLVQAGGSLRLSCAASGIIIRYYGMGWYRQAPGKERELVARIRWTGGSTYYADSVKGRFTISRDNAKNTVYLQMNSLKPEDTAVYYCNADPWWRFDYWGQGTQVTVSS
polyreactivity (PSR sort gate): low polyreactivity

QVQLVESGGGLVQAGGSLRLSCAASGIIITYYTMGWYRQAPGKERELVAAIRWRGGSTYYADSVKGRFTISRDNAKNTVYLQMNSLKPEDTAVYYCNARSAFRSCGRDFLFDYWGQGTQVTGSS
polyreactivity (PSR sort gate): high polyreactivity

QVQLVESGGGLVQAGGSLRLSCAASGIIIYDYAMGWYRHAPGKERELVAAISRSGGSTYYADSVKGRFTISRDNAKYTVYLQMNSLKPDDTAVYYCNADEVVWGYNYWGQGTQVTVSS
polyreactivity (PSR sort gate): low polyreactivity

QVQLVESGGGLVQAGGSLRLSCAASGIILDTYDMGWYRQAPGKERELVAVISWRGRTYYADSVKGRFTISRDNAKNTVYLQMNSLKPEDTAVYYCAAYSYRSVRWGWTSYDYWGQGTQVTVSS
polyreactivity (PSR sort gate): high polyreactivity

QVQLVESGGGLVQAGGSLRLSCAASGIILKFYAMGWYRQAPGKERELVAAISRGGRTNYADSVKGRFTISRDNANNTVYLQMNSLKPEDTAVYYCAAKSYTYYRNYDYWGQGTQVTVSA
polyreactivity (PSR sort gate): high polyreactivity

QVQLVESGGGLVQAGGSLRLSCAASGIILLFYVMGWYRQAPGKERELVASINGRSARTYYADSVKGRFTISRDNAKNTVYLQMNSLKPEDTAVYYCAAGYRYAGNGQIANTGGYYWGQGTQVTVSS
polyreactivity (PSR sort gate): low polyreactivity

QVQLVESGGGLVQAGGSLRLSCAASGIILLRYTMGWYRQAPGKERELVAAISRSAGRTYYADSVKGRFTISRDNAKNTVYLQMNSLKPEDTAVYYCAAAFVSVRKRYGYWGHGTQVTVSS
polyreactivity (PSR sort gate): high polyreactivity

QVQLVESGGGLVQAGGSLRLSCAASGIILPKYSMGWYRQAPGKERELVAAITRSGGSTYYADSVKGRFTISRDNAKNTVYLQMNSLKPEDTAVYYCAARAANPTRTARYNYWGHGTQVTVSS
polyreactivity (PSR sort gate): high polyreactivity

QVQLVESGGGLVQAGGSLRLSCAASGIILPVYAMGWYRPAPGKERELVAAIRWSSGRTYYADSVKGRFTISRDNAKNTVYLQMNSLKPEDTAVYYCAAYPSSEYDYWGQGTQVTVSS
polyreactivity (PSR sort gate): low polyreactivity

QVQLVESGGGLVQAGGSLRLSCAASGIILPVYAMGWYRQAPGKERELVAAIRWCSGRTYYADSVKGRFTISRDNAKNTVFLQMNSLKPEDTAVYYCAKDGGQRKYDYWGQGTQVTVSS
polyreactivity (PSR sort gate): low polyreactivity

QVQLVESGGGLVQAGGSLRLSCAASGIILPVYAMGWYRQAPGKERELVAAIRWSSGRTYYADSVKGRFTISRDNAKNTVYLQMNSLKPEDTAVYYCNAALYHDSEYNYWGQGTQVTVSS
polyreactivity (PSR sort gate): high polyreactivity

QVQLVESGGGLVQAGGSLRLSCAASGIILRYYAMGWYRQAPGKERELVASITSSGGRTYYADSVKGRFRISRDNAKNTVYLQMNSLKPEDTAVDYCAAKWAVVSGYGYWGQGTQVTVSS
polyreactivity (PSR sort gate): high polyreactivity

QVQLVESGGGLVQAGGSLRLSCAASGIILSPYTMGWYRQAPGKERELVAGISRSGGTTYYADSVKGRFTISRDNAKNTVYLQMNSLKPEDTAVYYCAARKPGWGHEWWVEHYYYWGQGTQVTVSS
polyreactivity (PSR sort gate): low polyreactivity

QVQLVESGGGLVQAGGSLRLSCAASGIILTQNAMGWYRQAPGKERELVAAITESGARTYYADSVKGRFTISRDNAKNTVYLQMNSLKPEDTAVYYCNAYRYYRGQVYPFYYWGQGTQVTVSS
polyreactivity (PSR sort gate): low polyreactivity

QVQLVESGGGLVQAGGSLRLSCAASGIILYWNAMGWYRQAPGKERELVARITSGGSTNYADSVKGRFTISRDNAKNTVYLQMNSLKPEDTAVYYCAADYKAYGRSYDYWGQGTQVTVSS
polyreactivity (PSR sort gate): low polyreactivity

QVQLVESGGGLVQAGGSLRLSCAASGIILYYYVMVWYRQEPGKEREFVAAINRSGTSTYYADSVKGRFTISRDNAKNTVYLQMNSLKPADTAVYYCAAERYWSGGVFDYDYWGQGTQVTVSS
polyreactivity (PSR sort gate): high polyreactivity

QVQLVESGGGLVQAGGSLRLSCAASGIIMRKYAMGWYRQAPGKERELVAAITTRGSRTYYADSVKGRFTISRDNAKNTVYLQMNSLKPEDTAVYYCAADRYTVRMDYWGQGTQVTVSS
polyreactivity (PSR sort gate): high polyreactivity

QVQLVESGGGLVQAGGSLRLSCAASGIISIFNVMGWYRQAPGKEMEWVASITGRGGSTFYADSVKGRFTISRDNAKNTVDLLMNSMKPEATAVYFCATDNGYTYPVTGLYDYWGQGTQVTVSS
polyreactivity (PSR sort gate): low polyreactivity

QVQLVESGGGLVQAGGSLRLSCAASGIISSTNAMGWYRQEPGKERELVAAISGRGSGTYYADSVKGRFTISRDNAKNTVYLQMNRLKPEDTAVYYCAALSNVFQWWFKTNKSRYDYWGQGTQVTVSS
polyreactivity (PSR sort gate): high polyreactivity

QVQLVESGGGLVQAGGSLRLSCAASGIISSVYAMGWYRQAPGKERELVAAITGSGGNTYYADSVKGRFTISRDNAKNTVSLQMNSLKPEDTAVYYCATDDAIISYELVYQYDHWGQGTQVTVSS
polyreactivity (PSR sort gate): low polyreactivity

QVQLVESGGGLVQAGGSLRLSCAASGIISYQKAMGWYRQAPGKERELVAGITYSGGSTYYADSVKGRFTISRDNAKNSVYLQMNSLKPEDTAVYYCAARVVYWTWAGLSKMDYWGQGTQVTVSS
polyreactivity (PSR sort gate): high polyreactivity

QVQLVESGGGLVQAGGSLRLSCAASGIIYGIYAMGWYRQAPGKERELVAAITSRGGTTYYADSVKGRFTISRDNAKNTVYLQMNSLKPEDTAVYYCAARGRRYSHRVGYDWGQGTQVTVSS
polyreactivity (PSR sort gate): high polyreactivity

QVQLVESGGGLVQAGGSLRLSCAASGIIYKSYAMGWYRQAPGKERELVAVIRWSGGSTYYSDSVKGRFTISRDNAKNTVYLQMNSLKPEDTAVYYCAATPRKSYSIRRYDYWGQGTQVTVSS
polyreactivity (PSR sort gate): high polyreactivity
